From the RNAGym collection of RNA variant scans (doi:10.1021/acssynbio.7b00057)

B1: Pistol ribozyme (parent)
chain: GGGUCGUUGUUCCAUAAUCGCGUGGAUAUGGCACGCAAGUUUCUACCGGGCACCGUAAAUGUCCGACUGGAGCCGUUCGGGCGGCUAUAAACAGACCUCAGGCCCGAAGCGUGGCGGCACCUGCCGCCGGUGGUAAAAAAGAUCGGAAGAGCACACGUCU

Variants of: B1
Assay: aptazyme ON/OFF ratio, guanine; higher = stronger switching; co-transcriptional cleavage with and without guanine

Row | Variant | aptazyme ON/OFF ratio
1 | U7A U8A U11C C12U C13A | 1.21
2 | U7A U8A U11C C12U C13G | 1.21
3 | U7A U8A U11C C12U C13U | 1.59
4 | U7A U8A G9U U10G U11G C12A C13A | 1.24
5 | U7A U8A G9U U10G U11G C12A C13G | 1.2
6 | U7A U8A G9U U10G U11G C12A C13U | 1.17
7 | U7A U8A U10G C12G C13U | 1.28
8 | U7A U8A U10G C12G C13G | 0.977
9 | U7A U8A U10G C12G C13A | 1.17
10 | U7A U8A G9U U10G U11G C12G | 1.41
11 | U7A U8A G9U U10G U11G C12U | 1.37
12 | U7A U8A G9U U10G U11G C12A | 1.13
13 | U7A U8A U10A U11G C13A | 1.16
14 | U7A U8A U10A U11G C13U | 1.26
15 | U7A U8A U10A U11G C13G | 1.28
16 | U7A U8A U10A U11C C12A C13G | 1.12
17 | U7A U8A U10A U11C C12A C13U | 1.11
18 | U7A U8A U10A U11C C12A C13A | 1.04
19 | U7A U8A G9U U10G U11G C12U C13G | 1.24
20 | U7A U8A G9U U10G U11G C12U C13A | 1.47
21 | U7A U8A G9U U10G U11G C12U C13U | 1.22
22 | U7A U8A U10C C12G C13G | 1.19
23 | U7A U8A U10C C12G C13U | 1.26
24 | U7A U8A U10C C12G C13A | 1.17

Row | Variant | aptazyme ON/OFF ratio
25 | U7A U8A U10C C12A C13A | 1.13
26 | U7A U8A U10C C12A C13G | 1.08
27 | U7A U8A U10C C12A C13U | 1.18
28 | U7A U8A G9U U10G U11A C12U | 1.07
29 | U7A U8A G9U U10G U11A C12A | 1.29
30 | U7A U8A G9U U10G U11A C12G | 1.32
31 | U7A U8A U10A U11A C12G | 1.19
32 | U7A U8A U10A U11A C12U | 1.2
33 | U7A U8A U10A U11A C12A | 1.18
34 | U7A U8A U10A U11A C12A C13A | 1.12
35 | U7A U8A U10A U11A C12A C13G | 1.19
36 | U7A U8A U10A U11A C12A C13U | 1.25
37 | U7A U8A U10G U11G C12U | 1.46
38 | U7A U8A U10G U11G C12G | 1.33
39 | U7A U8A U10G U11G C12A | 1.3
40 | U7A U8A G9U U10G C12U C13U | 1.51
41 | U7A U8A G9U U10G C12U C13A | 1.17
42 | U7A U8A G9U U10G C12U C13G | 1.26
43 | U7A U8A G9U U11C C12G C13G | 1.04
44 | U7A U8A G9U U11C C12G C13A | 1.18
45 | U7A U8A G9U U11C C12G C13U | 1.29
46 | U7A U8A G9U U10G U11C C12U C13A | 1.09
47 | U7A U8A G9U U10G U11C C12U C13G | 1.22
48 | U7A U8A G9U U10G U11C C12U C13U | 1.28

Row | Variant | aptazyme ON/OFF ratio
49 | U7A U8A U10G U11A C13U | 1.15
50 | U7A U8A U10G U11A C13G | 1.16
51 | U7A U8A U10G U11A C13A | 1.19
52 | U7A U8A G9U U11C C13U | 1.04
53 | U7A U8A G9U U11C C13G | 1.05
54 | U7A U8A G9U U11C C13A | 1.11
55 | U7A U8A G9U U11G C12G C13G | 1.22
56 | U7A U8A G9U U11G C12G C13U | 1.1
57 | U7A U8A G9U U11G C12G C13A | 1.22
58 | U7A U8A U10G U11C C12A C13G | 1.09
59 | U7A U8A U10G U11C C12A C13A | 1.28
60 | U7A U8A U10G U11C C12A C13U | 1.34
61 | U7A U8A U10C U11G C12A | 1.09
62 | U7A U8A U10C U11G C12U | 1.45
63 | U7A U8A U10C U11G C12G | 1.34
64 | U7A U8A U10G U11G | 1.38
65 | U7A U8A U10G U11C | 1.03
66 | U7A U8A U10G U11A | 1.03
67 | U7A U8A U11C C12U | 1.48
68 | U7A U8A U11C C12G | 1.17
69 | U7A U8A U11C C12A | 1.36
70 | U7A U8A U10A U11G C12G C13U | 1.35
71 | U7A U8A U10A U11G C12G C13G | 1.6
72 | U7A U8A U10A U11G C12G C13A | 0.986

Row | Variant | aptazyme ON/OFF ratio
73 | U7A U8A U10C U11A C12A | 1.24
74 | U7A U8A U10C U11A C12G | 1.19
75 | U7A U8A U10C U11A C12U | 1.14
76 | U7A U8A G9U U11A C12G C13A | 0.953
77 | U7A U8A G9U U11A C12G C13G | 1.16
78 | U7A U8A G9U U11A C12G C13U | 1.14
79 | U7A U8A U11A C12U C13G | 1.28
80 | U7A U8A U11A C12U C13U | 1.25
81 | U7A U8A U11A C12U C13A | 1.29
82 | U7A U8A U10G U11G C12G C13A | 1.07
83 | U7A U8A U10G U11G C12G C13U | 1.4
84 | U7A U8A U10G U11G C12G C13G | 1.09
85 | U7A U8A U10G U11A C12U C13A | 1.35
86 | U7A U8A U10G U11A C12U C13G | 1.27
87 | U7A U8A U10G U11A C12U C13U | 1.11
88 | U7A U8A U10C U11C C13U | 1.02
89 | U7A U8A U10C U11C C13G | 1.07
90 | U7A U8A U10C U11C C13A | 1.01
91 | U7A U8A U10A U11A C13A | 1.16
92 | U7A U8A U10A U11A C13G | 1.18
93 | U7A U8A U10A U11A C13U | 1.11
94 | U7A U8A U10A C12U C13G | 1.1
95 | U7A U8A U10A C12U C13U | 1.2
96 | U7A U8A U10A C12U C13A | 1.28

Row | Variant | aptazyme ON/OFF ratio
97 | U7A U8A U10G U11G C13U | 1.5
98 | U7A U8A U10G U11G C13A | 1.07
99 | U7A U8A U10G U11G C13G | 1.12
100 | U7A U8A U11A C13U | 1.11
101 | U7A U8A U11A C13G | 1.09
102 | U7A U8A U11A C13A | 1.11
103 | U7A U8A U10A U11C C12U C13U | 1.04
104 | U7A U8A U10A U11C C12U C13G | 1.1
105 | U7A U8A U10A U11C C12U C13A | 1.11
106 | U7A U8A U10C U11G C12G C13G | 1.18
107 | U7A U8A U10C U11G C12G C13A | 1.17
108 | U7A U8A U10C U11G C12G C13U | 1.19
109 | U7A U8A U10C C12U C13G | 1.07
110 | U7A U8A U10C C12U C13U | 1.14
111 | U7A U8A U10C C12U C13A | 1.05
112 | U7A U8A G9U U11C C12A C13A | 1.12
113 | U7A U8A G9U U11C C12A C13U | 1.17
114 | U7A U8A G9U U11C C12A C13G | 1.13
115 | U7A U8A U10G U11A C12G | 1.34
116 | U7A U8A U10G U11A C12A | 1.4
117 | U7A U8A U10G U11A C12U | 1.24
118 | U7A U8A U10G U11A C12G C13U | 1.51
119 | U7A U8A U10G U11A C12G C13G | 1.16
120 | U7A U8A U10G U11A C12G C13A | 1.2

Row | Variant | aptazyme ON/OFF ratio
121 | U7A U8A U10C U11A C12G C13A | 1.12
122 | U7A U8A U10C U11A C12G C13G | 1.24
123 | U7A U8A U10C U11A C12G C13U | 1.12
124 | U7A U8A U10G U11G C12A C13G | 1.16
125 | U7A U8A U10G U11G C12A C13U | 1.34
126 | U7A U8A U10G U11G C12A C13A | 1.21
127 | U7A U8A U10C U11C C12U C13U | 1.05
128 | U7A U8A U10C U11C C12U C13G | 1.15
129 | U7A U8A U10C U11C C12U C13A | 1.04
130 | U7A U8A U10A U11A C12U C13U | 1.14
131 | U7A U8A U10A U11A C12U C13G | 1.24
132 | U7A U8A U10A U11A C12U C13A | 1.33
133 | U7A U8A G9U U10G U11C C12G C13A | 1.09
134 | U7A U8A G9U U10G U11C C12G C13G | 1.14
135 | U7A U8A G9U U10G U11C C12G C13U | 1.24
136 | U7A U8A U11A C12A C13U | 1.26
137 | U7A U8A U11A C12A C13A | 1.33
138 | U7A U8A U11A C12A C13G | 1.28
139 | U7A U8A U11C C12A C13U | 1.69
140 | U7A U8A U11C C12A C13A | 1.02
141 | U7A U8A U11C C12A C13G | 1.42
142 | U7A U8A U10G U11C C12U C13A | 1.42
143 | U7A U8A U10G U11C C12U C13U | 1.47
144 | U7A U8A U10G U11C C12U C13G | 1.48

Row | Variant | aptazyme ON/OFF ratio
145 | U7A U8A G9U U10G U11A C12A C13G | 1.09
146 | U7A U8A G9U U10G U11A C12A C13A | 1.19
147 | U7A U8A G9U U10G U11A C12A C13U | 1.16
148 | U7A U8A U10A | 1.05
149 | U7A U8A U10C | 3.05
150 | U7A U8A U10G | 1.52
151 | U7A U8A U10C U11A C12A C13G | 1.18
152 | U7A U8A U10C U11A C12A C13A | 1.1
153 | U7A U8A U10C U11A C12A C13U | 1.16
154 | U7A U8A G9U U11G C12U C13U | 1.55
155 | U7A U8A G9U U11G C12U C13A | 1.28
156 | U7A U8A G9U U11G C12U C13G | 1.17
157 | U7A U8A G9U U11C C12G | 1.19
158 | U7A U8A G9U U11C C12A | 1.17
159 | U7A U8A G9U U11C C12U | 1.13
160 | U7A U8A U10A C12G C13U | 1.23
161 | U7A U8A U10A C12G C13A | 1.14
162 | U7A U8A U10A C12G C13G | 1.17
163 | U7A U8A U10C U11C C12G C13U | 1.08
164 | U7A U8A U10C U11C C12G C13A | 1.1
165 | U7A U8A U10C U11C C12G C13G | 1.21
166 | U7A U8A U10C U11A C13G | 1.09
167 | U7A U8A U10C U11A C13A | 1.13
